Ends that are not written are not given here.
B1: Acetylated PA (AcPA) (peptide)
peptide: IALILEPICCQERAA
modifications: cysteine pairing not given here; also: acetylated, position not given here
notes: Polar Assortant (PA), 15 amino-acid derivative obtained by extensive modification of a 15-residue peptide of the human astrovirus type 1 coat protein; also called acetylated Polar Assortant peptide; PIC1; source: synthetic peptide, bought: New England Peptide (>=90% purity)
B2: C-terminally biotinylated PA peptide (peptide)
peptide: IALILEPICCQERAA-biotin
modifications: cysteine pairing not given here
notes: Polar Assortant (PA), 15 amino-acid derivative of a human astrovirus type 1 coat protein peptide; Detected by its biotin (streptavidin IR 680 or neutravidin-HRP); source: synthetic peptide, bought: New England Peptide (>=90% purity)

Tests used:
Details in all cases: both partners purified
C1q [1] = biological target: T1, C1q (UniProt P02745 23-245; P02746 28-253; P02747 29-245); test: ELISA; AcPA adsorbed to the plate at 2.5 uM; purified C1q (1 ug) added in 50 mM HEPES pH 7.0 with various concentrations of NaCl, 1 h, room temperature; detected with goat anti-C1q
T1 construct: also called purified C1q; intact C1q

C1q [2] = biological target: T1, C1q; test: cross-linking; C1q and biotinylated PA at a ratio of 1:25 in 0.1 M Na2HPO4, 0.15 M NaCl, pH 8.0, room temperature 2.5 h, with or without 20 uM BS3; SDS-PAGE and blot with streptavidin and anti-C1q
[3] = biological target: Wild-type recombinant ficolin H (ficolin-3) (human, UniProt O75636 24-299); test: ELISA; ficolins adsorbed at 10 ug/mL, C1q at 25 nM, BSA at 30 ug/mL; biotinylated PA added at various concentrations in blocking buffer with 0.4 M NaCl, 1 h, room temperature; neutravidin-HRP
[4] = biological target: Wild-type recombinant ficolin L (ficolin-2) (human, UniProt Q15485 26-313); test: as above
[5] = biological target: Wild-type recombinant ficolin M (ficolin-1) (human, UniProt O00602 30-326); test: as above
Sequence of Wild-type recombinant ficolin M (ficolin-1) (O00602 30-326): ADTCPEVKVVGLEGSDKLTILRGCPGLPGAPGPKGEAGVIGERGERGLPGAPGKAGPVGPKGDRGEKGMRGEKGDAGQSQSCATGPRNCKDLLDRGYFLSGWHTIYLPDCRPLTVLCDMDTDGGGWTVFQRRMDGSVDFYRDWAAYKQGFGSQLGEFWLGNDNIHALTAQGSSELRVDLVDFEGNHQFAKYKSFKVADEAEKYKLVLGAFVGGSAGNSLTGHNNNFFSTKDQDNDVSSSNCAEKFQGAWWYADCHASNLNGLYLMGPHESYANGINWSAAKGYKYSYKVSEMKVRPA

T1 sequence (P02745 23-245, chain 1 of 3): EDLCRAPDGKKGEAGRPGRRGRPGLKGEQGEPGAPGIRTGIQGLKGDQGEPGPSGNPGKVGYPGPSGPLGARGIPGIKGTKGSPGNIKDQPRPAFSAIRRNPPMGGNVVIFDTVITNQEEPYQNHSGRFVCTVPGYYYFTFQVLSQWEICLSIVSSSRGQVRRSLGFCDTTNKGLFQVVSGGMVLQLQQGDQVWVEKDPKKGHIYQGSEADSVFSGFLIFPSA
T1 sequence (P02746 28-253, chain 2 of 3): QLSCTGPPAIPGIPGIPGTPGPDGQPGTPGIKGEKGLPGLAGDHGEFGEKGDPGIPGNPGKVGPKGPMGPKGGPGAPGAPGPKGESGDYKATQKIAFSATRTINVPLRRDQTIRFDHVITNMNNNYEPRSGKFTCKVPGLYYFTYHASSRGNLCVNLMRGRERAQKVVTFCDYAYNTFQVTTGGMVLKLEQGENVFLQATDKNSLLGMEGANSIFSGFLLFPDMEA
T1 sequence (P02747 29-245, chain 3 of 3): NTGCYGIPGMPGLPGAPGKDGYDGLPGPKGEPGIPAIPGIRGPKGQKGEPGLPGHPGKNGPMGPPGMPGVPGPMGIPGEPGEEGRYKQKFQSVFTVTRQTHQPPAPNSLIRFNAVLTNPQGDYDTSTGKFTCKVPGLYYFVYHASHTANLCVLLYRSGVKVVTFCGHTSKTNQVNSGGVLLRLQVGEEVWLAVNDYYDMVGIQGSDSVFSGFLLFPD
Sequence of Wild-type recombinant ficolin L (ficolin-2) (Q15485 26-313): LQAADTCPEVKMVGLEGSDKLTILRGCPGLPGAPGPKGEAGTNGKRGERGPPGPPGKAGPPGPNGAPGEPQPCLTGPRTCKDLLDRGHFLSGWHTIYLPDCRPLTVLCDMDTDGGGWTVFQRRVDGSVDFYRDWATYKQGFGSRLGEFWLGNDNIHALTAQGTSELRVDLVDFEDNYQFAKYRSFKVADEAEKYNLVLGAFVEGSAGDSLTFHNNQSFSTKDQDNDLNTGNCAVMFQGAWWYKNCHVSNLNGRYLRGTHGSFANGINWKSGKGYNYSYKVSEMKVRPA
Sequence of Wild-type recombinant ficolin H (ficolin-3) (O75636 24-299): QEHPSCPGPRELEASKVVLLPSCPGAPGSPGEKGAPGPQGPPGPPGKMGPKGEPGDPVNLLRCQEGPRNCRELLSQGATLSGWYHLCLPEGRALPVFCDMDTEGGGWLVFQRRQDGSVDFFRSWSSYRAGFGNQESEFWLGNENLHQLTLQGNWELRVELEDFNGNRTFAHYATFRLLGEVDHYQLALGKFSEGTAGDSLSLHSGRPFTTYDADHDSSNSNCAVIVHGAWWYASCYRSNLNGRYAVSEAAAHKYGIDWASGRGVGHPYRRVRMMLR

Binder	binding result (C1q [1])	binding result (C1q [2])	binding result [3]	binding result [4]	binding result [5]
B1	binds				
B2		binds	binds	binds	binds
